Assays:
ADP-ribose binding assay = conditions: 1 μM ARH3, 3 μM [14C]ADP-ribose, 30° C., 16 h
Protocol: ADP-ribose binding assay. [^14C]ADP-ribose was generated by incubation overnight at 30° C. of 80 μM (10 μCi) [adenine-U-^14C]NAD with 50 μl of RT6.2 solution (5 nmol/h NADase activity; gift from Dr. Sunhee Park, NHLBI, National Institutes of Health, Bethesda, Md.) in 250 μl of 50 mM potassium phosphate, pH 7.5, and purified by HPLC using Zorbax Sax column as described above. [^14C]ADP-ribose, eluted at 40 min, was stored at −20° C.
To assess protein binding, 1 μM human wild type or D77N/D78N mutant ARH3 was incubated (30° C., 16 h) with 3 μM [^14C]ADP-ribose in 50 mM potassium phosphate buffer, pH 7.5, without or with 10 mM MgCl2, and/or 5 mM DTT (total volume 100 μl). A sample (90 μl) was applied to a column (0.5×4 cm) of Affi-Gel boronate (100 mg, Bio-Rad) which was equilibrated with 0.1 M glycine, pH 9.0, containing 0.1 M NaCl, with or without 10 mM MgCl2, and/or 5 mM DTT, and eluted with five 1-ml portions of the same solution. The total eluate, containing ARH with bound ADP-ribose was collected for liquid scintillation counting.
After incubation of wild-type or mutant ARH3 (1 μM) with [^14C]ADP-ribose (3 μM) (30° C., 16 h) without or with 10 mM MgCl2 and/or 5 mM DTT (total volume 100 μl), unbound ADP-ribose was removed by binding to Affi-gel boronate (Bio-Rad), and ARH3 with ADP-ribose bound, was collected for radioassay. […]

[1] = Poly(ADP-ribose) hydrolysis (autoradiography, high resolution PAGE, HPLC); assay type: biochemical
Protocol: Poly(ADP-ribose) hydrolysis by autoradiography. [^32P]poly(ADP-ribose)PARP (500 ng of PARP with poly(ADP-ribose) was incubated (37° C., 2 h) with 2 μM ARH in 25 μl of 50 mM potassium phosphate buffer, pH 7.5, with or without 10 mM MgCl2 and/or 5 mM DTT. Reactions were stopped by adding 6 μl of 5× Laemmli buffer. Samples (20 μl) of proteins were separated by SDS-PAGE in 4-20% gels and transferred to nitrocellulose membranes that were exposed to X-ray film (Kodak) for 10 h.
Hydrolysis of poly(ADP-ribose) by PARG and ARH3. Purified [^32P] poly(ADP-ribose) (5.5×10^5 cpm, ˜300 nM ADP-ribose) was incubated for the indicated time at 37° C. in 25 μl of 50 mM potassium phosphate, pH 7.5, containing 10 mM MgCl2 and 5 mM DTT with enzyme or other additions as indicated and terminated by addition of 25 μl of 2× electrophoresis buffer (Invitrogen). [^32P]AMP was generated by incubation (37° C., 3 h) of 10 μM [^32P] NAD (10 μCi/reaction) with pyrophosphatase (40 units/mg from SIGMA, 1 mg/ml) in 25 μl of 50 mM KPO4, pH 7.5, and 10 mM MgCl2. [^32P] ADP-ribose was generated in a 25 μl mixture containing 50 mM KPO4, pH 7.5, 25 μg of activated CTA, 10 μM [^32P] NAD (10 μCi/reaction), 10 mM MgCl2, and 5 mM DTT, which was incubated at 30° C. overnight. [^32P] phosphoribosyl-AMP was generated by incubation (37° C., 3 h) of [^32P]poly(ADP-ribose) (5.5×10^5 cpm, ˜300 nM ADP-ribose) with Crotalus adamanteus phosphodiesterase (10 mU/reaction), 25 μl of 50 mM KPO4, pH 7.5, 10 mM MgCl2, and 5 mM DTT. Identities of AMP and ADP-ribose standards were confirmed by HPLC on C18 and SAX columns respectively.
High resolution Polyacrylamide Gel Electrophoresis (PAGE). Polyacrylamide (20%) gels (20×20×0.15 cm) containing polyacrylamide and bis(acrylamide), in a ratio of 19:1, 100 mM Tris-borate, pH 8.3, 2 mM EDTA, 4.4 mM ammonium persulfate, and 3.4 mM TEMED with electrophoresis carried out for 2 h at 400V with 50 mM Tris-borate, pH 8.3, 1 mM EDTA, before application of samples (15 μl) were used for analysis of poly(ADP-ribose) degradation. Subsequent electrophoresis at 400V was stopped when bromophenol blue (BPB) had moved 9 cm from the origin. Gels were exposed to X-ray films (Kodak).
HPLC analysis. HPLC, Hewlett-Packard series 1100 equipped with a diode-array spectrophotometric detector set at 254 nm, was used for separation of reaction products. For anion exchange perfusion chromatography, Zorbax SAX column (4.6×250 mm; DuPont, Wilmington Del.) was washed with 20 mM potassium phosphate, pH 4.5, for 30 min, followed by a linear gradient of 0-1M NaCl in the same buffer for 10 min (30-40 min), then same buffer with 1M NaCl for 10 min (40-50 min) at a flow rate of 1 ml/min. Nicotinamide was eluted at 3 min, NAD at 10 min, and ADP-ribose at 40 min. For reverse phase, Discovery C18 column (4.6×250 mm; SUPELCO, Bellefonte Pa.) was used. Samples were separated isocratically with 100 mM potassium phosphate, pH 6.0 containing 7% methanol at a same flow rate of 1 ml/min. ADP-ribose was eluted at 6 min, NAD at 8 min, nicotinamide 9 min.
Poly(ADP-ribose)PARP was used as substrate to assay potential poly(ADP-ribose) hydrolase activities of recombinant ARH1, 2 or 3. Products were identified by autoradiography and HPLC. Fractions (1 ml) were collected for liquid scintillation counting to quantify [^14C]ADP-ribose, which was eluted in fractions from 34 min to 43 min. Because ARH1 activity may require both DTT and Mg^2+, depending on species (Takada et al. (1993) J. Biol. Chem. 268:17837-17843; Moss et al. (1992) J. Biol. Chem. 267:10481-10488), these reactions were performed with or without 10 mM MgCl2, and/or 5 mM DTT. […] Degradation of [^32P]poly(ADP-ribose) by ARH3 was enhanced by 10 mM MgCl2 (FIG. 4A). Data were similar with mouse ARH3.
Samples of [^14C] ADP-ribosylated PARP (250 ng, 15,000 cpm, ˜850 nM ADP-ribose) were incubated at 37° C. (total volume, 100 μl) with human ARH3 as indicated. […]

B1: human ARH3: human ARH3 amino acid sequence SEQ ID NO: 2, synthesized as GST-fusion product in E. coli (protein, listed as Homo sapiens)
chain: MAAAAMAAAAGGGAGAARSLSRFRGCLAGALLGDCVGSFYEAHDTVDLTSVLRHVQSLEPDPGTPGSERTEALYYTDDTAMARALVQSLLAKEAFDEVDMAHRFAQEYKKDPDRGYGAGVVTVFKKLLNPKCRDVFEPARAQFNGKGSYGNGGAMRVAGISLAYSSVQDVQKFARLSAQLTHASSLGYNGAILQALAVHLALQGESSSEHFLKQLLGHMEDLEGDAQSVLDARELGMEERPYSSRLKKIGELLDQASVTREEVVSELGNGIAAFESVPTAIYCFLRCMEPDPEIPSAFNSLQRTLIYSISLGGDTDTIATMAGAIAGAYYGMDQVPESWQQSCEGYEETDILAQSLHRVFQKS
modifications: GST fusion
[14C]ADP-ribose binding (ADP-ribose binding assay): similar | Substrate remaining, [14C]poly(ADP-ribose)PARP ([1]; 40 nM hydrolase, 60 min, 37° C.): ~75% | Release of [14C]ADP-ribose from [14C]poly(ADP-ribose)PARP relative to wild-type ARH3 ([1]; 50 nM human ARH3 (wild-type or mutant), ~2 μM ADP-ribose, HPLC C18): 100% | Poly(ADP-ribose) hydrolysis (in words) ([1]; [32P]poly(ADP-ribose) or poly(ADP-ribose)PARP, 37° C., autoradiography / PAGE / HPLC): hydrolyzed

Reference: US7670806B2, “ADP-ribosyl acceptor hydrolase 3 (ARH3) polypeptides and methods of use” (The United States of America as represented by the …, priority 2005, dated 2010)
